Experimental data: patent publication US20220135694A1, “NOVEL CD40-BINDING ANTIBODIES” (LAVA THERAPEUTICS B.V., priority 2019, published 2022)

Assays:
CD40 = target: T1, CD40 (Homo sapiens, UniProt P25942); assay: CD40 antagonistic activity in primary CLL cells: pre-incubation, then rmCD40L for 48 h; type: cell-based; settings: pre-incubation, then rmCD40L for 48 hours; FIG. 8A-C
T1 construct: Primary chronic lymphocytic leukemia (CLL) cells express CD40 on the cell surface; endogenous in cells; host or cells: primary CLL PBMCs from untreated CLL patients
T1 sequence (P25942 21-277): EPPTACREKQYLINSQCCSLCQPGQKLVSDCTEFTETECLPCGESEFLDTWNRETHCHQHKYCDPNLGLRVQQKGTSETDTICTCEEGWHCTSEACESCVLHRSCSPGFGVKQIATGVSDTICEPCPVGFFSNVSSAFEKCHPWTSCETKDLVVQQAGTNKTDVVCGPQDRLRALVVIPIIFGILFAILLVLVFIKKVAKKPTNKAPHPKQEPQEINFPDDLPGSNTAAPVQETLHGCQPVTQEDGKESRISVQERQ
Procedure: PBMCs (≥90% CD5^+CD19^+) from untreated CLL patients were obtained and cryopreserved as described in […]. Thawed cells were kept in complete IMDM.
To test whether the VHH antagonizes CD40 stimulation, primary CLL PBMCs were pre-incubated with VHH or medium control for 30 minutes at 37° C. and subsequently cultured for 48 hours in the presence of rmCD40L (100 ng/mL).
After 48 hours, cells were analyzed by flow cytometry as described in Example 4.
To assess whether binding of the VHH has antagonistic effects, primary CLL PBMCs were pre-incubated with V19S76K-5C8 or medium control and then cultured with rmCD40L for 48 hours and analyzed by flow cytometry as described in Example 5.

[1] = test system: CD40-transfected HEK293T cells; assay: Cytotoxicity assay: CD40-transfected HEK293T target cells with Vγ9Vδ2-T cells; type: cell-based, human
Procedure: HEK293T cells, either wildtype (WT) or transfected with human CD40, were grown as described in Example 2. Vγ9Vδ2-T cells were grown as described in Example 7.
The cytotoxicity experiment, viability measurement and flow cytometry were performed as described in Example 12.

B1: V19S76K-5C8: tag-less bispecific anti-CD40-anti-Vγ9Vδ2-TCR VHH, SEQ ID NO:23 (protein)
VHH: QVQLQESGGGLVQAGGSLRLSCAASGRTFGRSAMGWFRQAPGKEREFVAAIGTRGGSTKYADSVKGRFTISTDNAKNTVYLQMDSLKPEDTAVYRCAVRGPGYPSAAIFQDEYHYWGQGTQVTVSSGGGGSEVQLVESGGGLVQAGGSLRLSCAASGRPFSNYAMGWFRQAPGKEREFVAAISWSGGSTSYADSVKGRFTISRDNAKNTVYLQMNSPKPEDTAIYYCAAQFSGADYGFGRLGIRGYEYDYWGQGTQVTVSS
modifications: antibody sequence
prevention of the effects of CD40 stimulation (CD80, CD86 and CD95 expression) (CD40): prevented the effects of CD40 stimulation in a dose-dependent manner | lysis of CD40-transfected HEK293T cells ([1]; overnight with Vγ9Vδ2-T cells, 1:1 ratio, FIG. 12): strongly enhanced | lysis of either WT or CD40-transfected HEK293T cells ([1]; without Vγ9Vδ2-T cells): did not induce lysis
